The values below come from patent publication US20240262893A1.

The test concerns the target SARS-CoV-2 (Wuhan-Hu-1) wild-type (WT) spike protein carried on pseudotyped virus or on live wild-type virus (SARS-CoV-2 (Wuhan-Hu-1)), P0DTC2. The test is described as follows: cell-based or functional assay.

B1: R2D9 CDR3-knob (peptide)
peptide: ITHKTCPNGYNWFDRCCSWDGTCGDGCCSNRAWPSGNGRADSSIGETYGYEF
modifications: not checked
For the molecule B1, the pseudovirus neutralization, ng/mL (quantity not given) amounted to 24.2 ng/mL.
